These results are taken from US10624968B2, “Compounds for treating cancer” (Bicycle Therapeutics Limited, priority 2017, dated 2020).

Data set [1] can be described thus: Plasma stability (LC-MS/MS assay), mouse plasma, with and without AEBSF. The class given is in vitro ADME. The protocol:
I-1a plasma stability studies were conducted in human and mouse plasma.
In vitro plasma stability assay measures the extent of degradation of compounds in plasma.
Peptides or BDCs are incubated at 37° C. in plasma (mouse or human) at low micromolar concentrations for several hours. The stability is quantitatively measured by LC-MS/MS.
Add 8 μL of the 160 μM DMSO stock of peptide or BDC and add 8 μL of 160 μM DMSO stock of 06-34-18-N182 as internal standard to 304 μL of plasma (152 μL*2) for a final concentration of 4 μM (5% DMSO).
Incubate at 37° C. in 100% humidity.
Pipette out 40 μL for 7 timepoints: time 0, 1 h, 2 h, 4 h, 6 h, 8 h, 24 h into a 1.5 mL Eppendorf. Store at −80° C. immediately. (total volume of samples?×40=280 μL).
Add to the sample the extraction solvent. The extraction solvent contains 1 part of water, 3 parts of methanol, and 3 parts of acetonitrile.
To the time course samples add 120 μL of extraction solvent, mix thoroughly with pipette and gently vortex.
Centrifuge for 40 minutes at 14000 rpm at 4° C.
Transfer the supernatant to the LC-MS vials and run the experiment immediately afterwards.
It is recommend to follow one transition for the peptide of BDCs to study, and one transition for the internal standard 06-34-18-N182 at the same time. The most relevant Selected Ion Reaction (SIR) and Multiple Reaction Monitoring (MRM) transitions were determined for each peptide or BDC.
The analysis of the data has been performed using “QuanLynks” and “Sigmaplot” software.
For the studies depicted in FIGS. 1-3, the following conditions were used.
Column: Waters ACQUITY CSH Phenyl-Hexyl 1.7 μm 2.1×50 mm
Mobile Phase: […] ammonium bicarbonate in water; B=5 mM ammonium bicarbonate 10% water in acetonitrile.
Gradient: 5 to 60% B in 4 minutes at 0.6 mL/min flow.
To test the hypothesis that plasma instability in mouse was due to Ces1c, I-1a was incubated in mouse plasma both in the presence and absence of AEBSF,
Additionally, formation of the MMAE metabolite in mouse plasma (release of the toxin) was monitored both in the presence and absence of AEBSF.

The next data set relates to 11 tumor cell lines. Kind of data set: 11 cancer cell line panel cytotoxicity, statements on the whole panel. To be noted: all tested cell lines; 72 hours. The text has this:
Details of the initial cell plating procedure are described in Table 3.
Data Details for Tables 5 and 6. Inhibition %=(Max−Sample value)/(Max−Min)*100.
The IC50 curves were generated by 4 Parameter Logistic Model—Sigmoidal Dose-Response Model as follows: Y=Bottom+(Top−Bottom)/(1+10^((log EC50-X)*HillSlope)).

For the next data set, the system named is HT1080 cells. Briefly: Cytotoxicity in HT1080 cells in presence and absence of 1 mM bacitracin (ATPlite, 24 hour exposure). The protocol: HT1080 cells (ATCC, via LGC, BIC918) Maintained in EMEM media (Sigma M2279)+10% FBS (Sigma Code F7524)+4 mM L-Glu (Invitrogen Cat 25030-024)
I-1a and Toxins with Bacitracin—24 or 72 Hour Exposure in 96 Well Plates
DB seeded cells in normal media, 75 μL in 96 well clear plates, ˜24 hours previous.
HT1080—7.5 k cells/well: 50% confluent upon dosing.
Dilute in media 1:42.85=5 μL DMSO dilute+209 μL media=>use 15 μL per well
This gives a 5 μM top concentration for BDCs in assay
Add 10 µL of media±bacitracin (2 plates of each)−leave for 1 hr
Bacitracin=1 mM final concentration. This requires a 10 mM concentration with no DMSO.
Add 15 μL treatment per well as in Table 19, below.
Seal plates with gas permeable membrane and incubate at 37° C.
Washout HT1080 plates with 2×150 μL PBS at 24 h and add 100 μL fresh media
At t=72 h, equilibrate ATPlite reagent to room temperature. Add 10 ml buffer to each vial of lyophilized substrate. Add 100 μL reagent per well. Seal with PCR seal and cover to protect from light. Shake for 20 mins before reading luminescence

Data set [2] is described as follows: Body weight in HT1080 xenograft model (Example 7). The class given is in vivo. To be noted: any of the doses tested (1, 3, and 10 mg/kg). The protocol:
I-1a was evaluated in a HT1080 xenograft model at 1, 3, and 10 mg/kg. Additionally the ability of the binding peptide (the Bicycle+Spacer of I-1a, structure shown in Example 6) to abrogate activity when dosed at a 100-fold excess immediately before treatment with I-1a in the HT1080 xenograft model was assessed.

SMILES strings stand for the structures. Where two headings read alike, the source gives them in different places. Starred links: 1 amine or outer side, 2 acyl side, 3 side chain; linkers in the order of their positions; H or OH if unused. Positions of bridges follow the written chain, without caps; N, C: chain ends. Non-standard residues stand in square brackets, D forms with d. Residues, ends and D or L forms follow the SMILES beside them. Chains are numbered I, II in the order given. ξ: configuration not given here. *: point of attachment. Dolaproine = CO[C@@H]([C@@H]1CCCN1)[C@@H](C)C(=O)O; Dil = CC[C@H](C)[C@H](NC)[C@@H](CC(=O)O)OC; TBMB = c1c(C[*:1])cc(C[*:3])cc1C[*:2]; X2 = O=C(CCCC(=O)[*:2])NCCC(=O)[*:1]; PABC = O=C(OCc1ccc(N[*:1])cc1)[*:2]; X1 = C[C@@H](N*)[C@@H](O)c1ccccc1; ξ1Nal = NC(Cc1cccc2ccccc12)C(=O)O; Cit = NC(=O)NCCC[C@H](N)C(=O)O; NMeV = CN[C@H](C(=O)O)C(C)C; ξY = NC(Cc1ccc(O)cc1)C(=O)O; ξTle = CC(C)(C)C(N)C(=O)O; ξF = NC(Cc1ccccc1)C(=O)O; ξE = NC(CCC(=O)O)C(=O)O; ξD = NC(CC(=O)O)C(=O)O; ξN = NC(=O)CC(N)C(=O)O; ξC = NC(CS)C(=O)O; ξA = CC(N)C(=O)O; Sar = CNCC(=O)O

Take `CC[C@H](C)[C@@H]([C@@H](CC(=O)N1CCC[C@H]1[C@H](OC)[C@@H](C)C(=O)N[C@H](C)[C@@H](O)c1ccccc1)OC)N(C)C(=O)[C@@H](NC(=O)[C@H](C(C)C)N(C)C(=O)OCc1ccc(NC(=O)[C@H](CCCNC(N)=O)NC(=O)[C@@H](NC(=O)CCCC(=O)NCCC(=O)N(C)CC(=O)N(C)CC(=O)N(C)CC(=O)N(C)CC(=O)N(C)CC(=O)N(C)CC(=O)N(C)CC(=O)N(C)CC(=O)N(C)CC(=O)N(C)CC(=O)NC(C)C(=O)NC2CSCc3cc4cc(c3)CSCC(NC(=O)C(C)NC(=O)C(Cc3cccc5ccccc35)NC(=O)C(CCC(=O)O)NC(=O)C(CC(N)=O)NC(=O)C(C)NC2=O)C(=O)NC(CCC(=O)O)C(=O)NC(CC(=O)O)C(=O)NC(Cc2ccccc2)C(=O)NC(Cc2ccc(O)cc2)C(=O)NC(CC(=O)O)C(=O)NC(C(C)(C)C)C(=O)NC(C(N)=O)CSC4)C(C)C)cc1)C(C)C` (stereo partly drawn) [Compound I-1a] (I: [Sar][Sar][Sar][Sar][Sar][Sar][Sar][Sar][Sar][Sar][ξA][ξC][ξA][ξN][ξE][ξ1Nal][ξA][ξC][ξE][ξD][ξF][ξY][ξD][ξTle][ξC]-NH2 / II: V[Cit][PABC][NMeV]V[Dil][Dolaproine]-X1; linker I:12-I:18-I:25 via TBMB; linker I:N-II:N via X2): the half-life at 4 μM in data set [1] (mouse plasma without AEBSF, pH 7.4 at 37° C.) was 24 h; in data set [1] (with AEBSF (concentration not stated), mouse plasma +AEBSF, pH 7.4 at 37° C.), > 24 h. Besides, the remaining at 24 h, 4 μM in data set [1] (mouse plasma without AEBSF, pH 7.4 at 37° C., read-out: % remained after 24 hours incubation) is 50%; in data set [1] (with AEBSF (concentration not stated), mouse plasma +AEBSF, pH 7.4 at 37° C., read-out: % remained after 24 hours incubation), 100%. Besides, the “formation of the MMAE metabolite (release of the toxin)” value in data set [1] (mouse plasma, in the absence of AEBSF) is “I-1a degradation tracks with the appearance of free MMAE”; in data set [1] (mouse plasma, in the presence of AEBSF) it was “lack of formation of free MMAE”. The same molecule showed a half-life at 1 μM in data set [1] (mouse plasma, 1 μM, pH 7.4 at 37° C.) of 6.4 h. Moreover, in data set [1] (mouse plasma, 1 μM, pH 7.4 at 37° C., read-out: % remained after 24 hours incubation), the remaining at 24 h, 1 μM was 57%. For the same molecule, the “cytotoxic activity over the cell line panel (in words)” value in the data set on 11 tumor cell lines is recorded as “works well on all cell lines except HCT-15”. Besides, the IC50 in the data set with HT1080 cells (read-out: IC50 with 1 mM bacitracin, 24 hour exposure, + 1 mM bacitracin (PDI inhibitor)) was determined as 7.3 nM; in the data set with HT1080 cells (read-out: Standard IC50, 24 hour exposure (high MT1 expression), no block), 5.3 nM. Further, the “effect on body weight (in words)” value in data set [2] is recorded as “No dose-related effects on body weight”.
